Experimental data: the nanobody polyreactivity screen of Harvey et al. (2022)

Experiment: yeast display, Sf9 membrane polyspecificity reagent, FACS + sequencing; frameworks hold sequencing errors
Procedure, shortened: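 Genes from sorted yeast were amplified by colony PCR, read by MiSeq 2 × 250 sequencing and filtered on CDR length. These cells carried a synthetic nanobody library in Saccharomyces cerevisiae BJ5465 and were sorted by FACS into low and high (top ~1%) gates on anti-HA and streptavidin fluorescence. Polyreactivity is labelled according to the gate of origin.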

| Sequence | polyreactivity (PSR sort gate) |
| --- | --- |
| QVQLVESGGGLVQAGGSLRLSCAASGGTFYVYAMGWYRQAPGKERELVAAISTSDGITYYADSVKGRFTISRDNAKNTVYLQMNSLKPEDTAVYYCAAEFFSSFTYAYDYWGQGTQVTVSS | high polyreactivity |
| QVQLVESGGGLVQAGGSLRLSCAASGGTFYVYDMGWYRQTPGKEREFVADINFSTGITYYADSVKGRFTISRDNAKNTVYLQMNSLKPEDTAVYYCNADTAFYVYWYWIYDYWGQGTQVTVSS | high polyreactivity |
| QVQLVESGGGLVQAGGSLRLSCAASGGTFYYNAMGWYRQAPGKERELVAGITQSGGNTYYADSVKGRFTISRDNAKNTDYLQMNSLKPEDTAVYYCAARIRGTWKYGYWGQGTQVTVSS | low polyreactivity |
| QVQLVESGGGLVQAGGSLRLSCAASGGTIAGYAMGWYRQAPGKARELVASISDGGSTNYADSVKGRFTISRDNAKNTVYLQMNSLKPEDTAVYYCAVQGSRTENYDWYYYWGQGTQVTVSS | low polyreactivity |
| QVQLVESGGGLVQAGGSLRLSCAASGGTIGRYTMGWYRQAPGKERELVAAITGRGGSTYYADSVKGRFTISRDNAKNTVYLQMNSLKPEDTAVYYCAAVSNVARMYYWGQGTQVTVSS | high polyreactivity |
| QVQLVESGGGLVQAGGSLRLSCAASGGTIIGYAMGWYRQAPGKERELVAAITSGGSTYYADSVKGRFTISRDNAKNTVYLQMNSLKPEDTAVYYCAKSYGGLGSIYRFYYWGQGTQVTVSS | low polyreactivity |
| QVQLVESGGGLVQAGGSLRLSCAASGGTLAYYAMGWYRQAPGKERELVAAITRSGGSTYYSDSVKGRFTISRDNAKNTVYLQMNSLNPEVTAVYYCAALLAYWKNRWHIEYDYWGQGTQVTVSS | low polyreactivity |
| QVQLVESGGGLVQAGGSLRLSCAASGGTLGLNAMGWYRQAPGKEREFVAAINRSGGSTRYADSVKGRFTISRDNAKNTVYLQMNSLKPEDTAVYSCAAVGYWGPSGRHKSSKYEYWGQGTQVTVSS | high polyreactivity |
| QVQLVESGGGLVQAGGSLRLSCAASGGTSFYAMGWYRQAPGKDRELVAAITRSGGSTYYADSVKGRFTFSRDNAKNTVYLQMNSLKPEDTAVYYCAALSNHGYYIRMDYWGQGTQVTVSS | high polyreactivity |
| QVQLVESGGGLVQAGGSLRLSCAASGGTSIPYAMGWYRQAPGKERELVAAITRSGGRTYYADSVKGRFTISRDNAKNTVYLQMNSLKPEDTAVYYCAAAYYRWGYTVTVIKQFGYWGQGTQVTVSS | high polyreactivity |
| QVQLVESGGGLVQAGGSLRLSCAASGHIFFVNAMGWYRQAPGKERELVAAINSVGSTYYADSVKGRFTISRDNAKNTVYLQMNSLKPEDTAVYYCAADSVYSQRHSWAYEDDYWGQGTQVTVSS | low polyreactivity |
| QVQLVESGGGLVQAGGSLRLSCAASGHIFPTNPMGWYRQAPGKERQLVAVISESVGSTYYADSVKGRFTISRDNAKNTVYLQMNSLKPEDTAVYFCAKQSRYPSLDADYDYWGQGTQVTVSS | low polyreactivity |
| QVQLVESGGGLVQAGGSLRLSCAASGHTFLEYAMGWYRQAPGKESELVASISFSAGSTYYADSVKGRFTISRDNAKNTVYLQLNSLKPEDTALYYCNAEYLYDYYYYWPYWFEFDYWGQGTQVTVSS | high polyreactivity |
| QVQLVESGGGLVQAGGSLRLSCAASGHTLAVKAKGWYRQAPGKERELVAAITRSGVTTSYADSVKGRFTISRDNAQNTFYLQLHSVKPEDTAVSYCAAQLDASYLTGGWRRHYNYWGQGTQVTVSS | low polyreactivity |
| QVQLVESGGGLVQAGGSLRLSCAASGIFDPNAMGWNRQAPRKERELVAAITSGGSTNYADSVKGRFTISRDNAKNTVYLQMNSLKPEDTAVYYCNRVEGRTRWADEMNYWGQGTQLTVSS | low polyreactivity |
| QVQLVESGGGLVQAGGSLRLSCAASGIFFNYMGWYRQAPGKEREFVAAIDYRGGNTFYADSVKGRFTISRDNAKNTVYLQMNSLKPEDTAVYYCARAFGQRRYDYWGQGTQVTVSS | high polyreactivity |
| QVQLVESGGGLVQAGGSLRLSCAASGIFFPNAMGCYRQAPGKERELVAAISWTGGSTFYADSVKGRFTISRDNAKNTVYLQMNSLKPEDTAVYYCAAEEYYAGWTYDYWGQGTQVTVSS | high polyreactivity |
| QVQLVESGGGLVQAGGSLRLSCAASGIFGVNTMGWYRQAPGKERELVASITSGGSTNYADSVKGRFTISRDNAKNTVYLQMNSLKPEDTAVYYCAAGLYLQGPFDYWGQGTQVTVSS | low polyreactivity |
| QVQLVESGGGLVQAGGSLRLSCAASGIFGYNAMGWYIQAPGKERELVAAITSSGTSTYYADSVKGRFTISRDNAKNTVYLQMNSLKPEDTAVYYCAALHSGTWTGYGYWGQGTQVTVSS | low polyreactivity |
| QVQLVESGGGLVQAGGSLRLSCAASGIFSRYAMGWYRQAPGKERELVAAISSGGSTYYADSVKGRFTISRDNAKNTVYLQMNSLKAEDTAVYYCAVKQRDKFAGGRNDYWGQGTQVTVSS | high polyreactivity |
| QVQLVESGGGLVQAGGSLRLSCAASGIFSYYAMGWYRPAPGKERELVAAISSSGGSTYYADSVKGRFTISRDNAMNTVYLQMNSLKPEDTAVYYCNVRNYYNDYYYWGQGTQVTVSS | high polyreactivity |
| QVQLVESGGGLVQAGGSLRLSCAASGIFTRYAMGWYRQAPGKERELVAAISRGGGSTYYADSVKGRFTISRDNAKNTVYLQMNSLKPEDTAVYYCNTYKRPRSPGPKFYYWGQGTQVTVSS | high polyreactivity |

| Sequence | polyreactivity (PSR sort gate) |
| --- | --- |
| QVQLVESGGGLVQAGGSLRLSCAASGIFVDNAMGWYRQAPGKERELVAAITSSTDSTYYADSVKGRFTISRDNAKNTVYLQMNSLKPEDTAVYYCAVARPGGFYFLVHYGYGYWGQGPQVTVSS | low polyreactivity |
| QVQLVESGGGLVQAGGSLRLSCAASGIIFAGNAMGWYRQAPGKERELVAAISSNGGSTYYADSVKGRFTISRDNAKNYVYLQMNSLKPEDTAVYYCAADRVYWGRVQGYYWGQGTQVTVSS | low polyreactivity |
| QVQLVESGGGLVQAGGSLRLSCAASGIIFAGYAMGWYRQAPGKVRELVAAISGSGGRTYYADSVKGRLTISRDNAKNTVYLQMNSLKPEDTAVSFCAAEGRSEWGGDYYYGGQGTQVTVSS | low polyreactivity |
| QVQLVESGGGLVQAGGSLRLSCAASGIIFANYAMGWYRQAPGKERELVAAITSSGSTYYADSVKGRFTISRDNAKNTVYLQMNSLKPEDTAVYYCAARRRGRFYYWGQGTQVTVSS | high polyreactivity |
| QVQLVESGGGLVQAGGSLRLSCAASGIIFASNAMGWYRQAPGKQRELVATINWTDSSTYYADSVKGRFTISRDNAKNTVYLQMNSLKPEDTAVYYCAVVDVEEHVGHWGQGTQVTVSS | low polyreactivity |
| QVQLVESGGGLVQAGGSLRLSCAASGIIFAYYAMGGYRHAPGKERELVAAISRSGGITYYADSVKGRFSISRDNAKNTVYLQMNSLKPEDTAVYDCARFSSRPYDYWGQGTQVTVSS | high polyreactivity |
| QVQLVESGGGLVQAGGSLRLSCAASGIIFAYYAMGWYRQAPGKERELVAAISRSGGITYYADSVKGRFTISRDNAKNTVYLQMNSLKPEDTAAYYCARYSCRPYDYWGQGTQVTVSS | high polyreactivity |
| QVQLVESGGGLVQAGGSLRLSCAASGIIFAYYAMGWYRQAPGKVRELVASITNTGSTYYADSVKGRFTISRDNAKNTVYLQMNSLKPEDTAVYYCNAVLSSNTKWRYPGDYWGQGTQVTVSS | low polyreactivity |
| QVQLVESGGGLVQAGGSLRLSCAASGIIFAYYAMGWYRQGPGKERELVASITNTGSTYYADSVKGRFTISRDNSKNTVYLQMNSLKPEDTAVYYCNAVLSSNTKWRYPGDYWGQGTQVTVSS | low polyreactivity |
| QVQLVESGGGLVQAGGSLRLSCAASGIIFDFYTMGWYRQAPGKERELVAAINSSGGSTYYADSVKGRFTISRDNAMNTVYLHMNSLKPADTAVYYCNAEYLFFWGQYDYWGQGTQVTVSS | high polyreactivity |
| QVQLVESGGGLVQAGGSLRLSCAASGIIFDINAMGWYRQAPGKERELVAAITTSVDSTYYADSVKGRFTISRDNAKNTVYLQMNRLKPEDTAVYYCAVAFVQFTQYDYWGQGTQVTVSS | low polyreactivity |
| QVQLVESGGGLVQAGGSLRLSCAASGIIFDINAMGWYRQAPGKERELVAAITTSVDSTYYADSVKGRFTISRDNAKNTVYLQMNSLKPEDTAVYYCAVAFVQFTQYDYWGQGTQVTVSS | low polyreactivity |
| QVQLVESGGGLVQAGGSLRLSCAASGIIFDLYAMGWYRQAPGKERELVAAITYGGGSTYYADSVKGRFTISRDNAKHTVYLQMNSLQPEDTAVYYCAAVPRSGMYYWGQGTQVTVSS | high polyreactivity |
| QVQLVESGGGLVQAGGSLRLSCAASGIIFDTNAMGGYRQAPGKERELVATITQRGGTTYYADSVKGRFTISRDNEKYTVYLQMNSLKPEDTAVYYCNAGPVRLPYDSWGQGTQVTVSS | low polyreactivity |
| QVQLVESGGGLVQAGGSLRLSCAASGIIFDWYAMGGYRQAPGKERELVAAITSGGGSTYYADSVKGRFTISRDNAKNSVYLQMNSLKPEDSAVYYCAADYQTIGWGYDYWGQGTQVTVSS | low polyreactivity |
| QVQLVESGGGLVQAGGSLRLSCAASGIIFDYNAMGWYRQAPGKERELVAAISSSGGSTYYADSVKGRFTLSRDNAKNTVYLLMTSLKPEDTAVYYCAAAPRFRGYDYWGQGTQVTVSS | high polyreactivity |
| QVQLVESGGGLVQAGGSLRLSCAASGIIFDYYAMGLYRHAPGKEMELVASISWSGGGTYYADSVKGRFTISRDNAKNTVYLQMNSLKPEDTAVYYCNAGDHFVHWPHVKHKKFDYWGQGTQVTVSS | low polyreactivity |
| QVQLVESGGGLVQAGGSLRLSCAASGIIFDYYAMGWYRQAPGKERELVAAITTAGSTYYADSVKGRFTISRDNAKNTVYLQLNSLNPEDTAVYYCDAYLYSVRLGSYGYWGQGTQVTVSS | high polyreactivity |
| QVQLVESGGGLVQAGGSLRLSCAASGIIFDYYPMGWYRQAPGKERELVAGITRSGGRTYYADSVKGRFTISRDNAKNTVYLQMNSLKPEDTAVYYCAAQRGRRRWGGYWGQGTQVTVSS | high polyreactivity |
| QVQLVESGGGLVQAGGSLRLSCAASGIIFEGYAMGWYRQATGKERELVAAITGTADGTYYADSVKGRFTISRDNAKNTVYLQMNSLKPEDTAVYYCAKGSVVYLLRGVKGHSMDYWGQGTQVTVSS | low polyreactivity |
| QVQLVESGGGLVQAGGSLRLSCAASGIIFELYAMGWYRQAPGKERELVAAISNGDSTNYADSVKGRFTISRDNAKNTVYLQMNSLKPEDTAVYYCAARYSTYVRYDYWGQGTQVTVSS | low polyreactivity |
